# Test results published in patent US20050182242A1, “Global analysis of protein activities using proteome chips” (priority 2001, published 2005).
# B1: ARO4: yeast GST-HisX6 fusion protein on proteome chip (protein, UniProt P32449 2-370, looked up)
# Phospho-2-dehydro-3-deoxyhepto …: SESPMFAANGMPKVNQGAEEDVRILGYDPLASPALLQVQIPATPTSLETAKRGRREAIDIITGKDDRVLVIVGPCSIHDLEAAQEYALRLKKLSDELKGDLSIIMRAYLEKPRTTVGWKGLINDPDVNNTFNINKGLQSARQLFVNLTNIGLPIGSEMLDTISPQYLADLVSFGAIGARTTESQLHRELASGLSFPVGFKNGTDGTLNVAVDACQAAAHSHHFMGVTKHGVAAITTTKGNEHCFVILRGGKKGTNYDAKSVAEAKAQLPAGSNGLMIDYSHGNSNKDFRNQPKVNDVVCEQIANGENAITGVMIESNINEGNQGIPAEGKAGLKYGVSITDACIGWETTEDVLRKLAAAVRQRREVNKK
# modifications: GST-His6 fusion tag
# notes: yeast GST-HisX6 fusion protein on proteome chip
# B2: PAU5: yeast GST-HisX6 fusion protein on proteome chip (protein, UniProt P43575 1-122, looked up)
# Seripauperin-5: MVKLTSIAAGVAAIAAGASAAATTTLSQSDERVNLVELGVYVSDIRAHLAEYYSFQAAHPTETYPVEIAEAVFNYGDFTTMLTGIPADQVTRVITGVPWYSSRLKPAISSALSADGIYTIAN
# modifications: GST-His6 fusion tag
# notes: as for B1
# B3: ARG1: yeast GST-HisX6 fusion protein on proteome chip (protein, UniProt P22768 1-420, looked up)
# Argininosuccinate synthase: MSKGKVCLAYSGGLDTSVILAWLLDQGYEVVAFMANVGQEEDFDAAKEKALKIGACKFVCVDCREDFVKDILFPAVQVNAVYEDVYLLGTSLARPVIAKAQIDVAKQEGCFAVSHGCTGKGNDQIRFELSFYALKPDVKCITPWRMPEFFERFAGRKDLLDYAAQKGIPVAQTKAKPWSTDENQAHISYEAGILEDPDTTPPKDMWKLIVDPMDAPDQPQDLTIDFERGLPVKLTYTDNKTSKEVSVTKPLDVFLAASNLARANGVGRIDIVEDRYINLKSRGCYEQAPLTVLRKAHVDLEGLTLDKEVRQLRDSFVTPNYSRLIYNGSYFTPECEYIRSMIQPSQNSVNGTVRVRLYKGNVIILGRSTKTEKLYDPTESSMDELTGFLPTDTTGFIAIQAIRIKKYGESKKTKGEELTL
# modifications: GST-His6 tag
# notes: as for B1
# B4: HIS7: yeast GST-HisX6 fusion protein on proteome chip (protein, UniProt P33734 1-552, looked up)
# Imidazole glycerol phosphate …: MPVVHVIDVESGNLQSLTNAIEHLGYEVQLVKSPKDFNISGTSRLILPGVGNYGHFVDNLFNRGFEKPIREYIESGKPIMGICVGLQALFAGSVESPKSTGLNYIDFKLSRFDDSEKPVPEIGWNSCIPSENLFFGLDPYKRYYFVHSFAAILNSEKKKNLENDGWKIAKAKYGSEEFIAAVNKNNIFATQFHPEKSGKAGLNVIENFLKQQSPPIPNYSAEEKELLMNDYSNYGLTRRIIACLDVRTNDQGDLVVTKGDQYDVREKSDGKGVRNLGKPVQLAQKYYQQGADEVTFLNITSFRDCPLKDTPMLEVLKQAAKTVFVPLTVGGGIKDIVDVDGTKIPALEVASLYFRSGADKVSIGTDAVYAAEKYYELGNRGDGTSPIETISKAYGAQAVVISVDPKRVYVNSQADTKNKVFETEYPGPNGEKYCWYQCTIKGGRESRDLGVWELTRACEALGAGEILLNCIDKDGSNSGYDLELIEHVKDAVKIPVIASSGAGVPEHFEEAFLKTRADACLGAGMFHRGEFTVNDVKEYLLEHGLKVRMDEE
# modifications: GST-His6 fusion tag
# notes: as for B1
# B5: DTR1: yeast GST-HisX6 fusion protein on proteome chip (protein, UniProt P38125 1-572, looked up)
# Dityrosine transporter 1: MGSEPFQKKNLGLQINSQESGTTRSTFHSLEDLGDDVINESWDQVNQKRANIDHDVFHEHPDSSPSLSAQKAKTKEEEVAVKSSNSQSRDPSPDTQAHIPYTYFSKDQRLIIFGIIIFIGFLGPMSGNIYIPALPLLQREYDVSATTINATVSVFMAVFSVGPLFWGALADFGGRKFLYMVSLSLMLIVNILLAAVPVNIAALFVLRIFQAFASSSVISLGAGTVTDVVPPKHRGKAIAYFMMGPNMGPIIAPIVAGLILMKGNYWRWLFGFTSIMTGIALILVTALLPETLRCIVGNGDPKWGDKKDERENNESPFFEGNKISHRRLFPDIGIRKPVNNDAFFQENFPKPPKAGLTLYWKMIKCPPIIITSVSTALLFSSYYAFSVTFSYYLEHDYRFTMLEIGAAYVCPGVAMLLGSQSGGHLSDYLRSRWIKSHPKKKFPAEFRLLLNLIGILLTICGTIGYGWAIFFHYHFVVLLVFSALTAFGMTWCSNTSMTYLTELFPKRAAGTVAVSSFFRNVGAAISSAIILQLCNAMGIGWCFTGLGLCSSISLIGILYLLIFQRKYTAKEF
# modifications: GST-His6 tag
# notes: as for B1
# B6: ERV1: yeast GST-HisX6 fusion protein on proteome chip (protein, UniProt P27882 1-189, looked up)
# Mitochondrial FAD-linked …: MKAIDKMTDNPPQEGLSGRKIIYDEDGKPCRSCNTLLDFQYVTGKISNGLKNLSSNGKLAGTGALTGEASELMPGSRTYRKVDPPDVEQLGRSSWTLLHSVAASYPAQPTDQQKGEMKQFLNIFSHIYPCNWCAKDFEKYIRENAPQVESREELGRWMCEAHNKVNKKLRKPKFDCNFWEKRWKDGWDE
# modifications: GST-His6 tag
# notes: as for B1
# Test system: phosphatidylcholine (PC) liposomes
# Assay: Yeast proteome chip probed with PC liposomes
# Settings: liposome binding signal on yeast proteome chip, Cy3-streptavidin detection
# Summary of the method: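 Binding detected by fluorescent streptavidin (Cy3 or Cy5, >30 min in the dark at RT) recognizing biotin-DHPE (1% w/w) in PC liposomes, which carried 5% (w/w) of the named phosphoinositide unless PC-only. Liposomes, made by sonication in TBS, were applied to blocked chips for 1 h at RT, then washed in PBS.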
row,Molecule,PC
1,B1,28.17
2,B2,22.30
3,B3,23.77
4,B4,193.11
5,B5,24.07

# Test system: PI(3,4,5)P3 liposomes
# Assay: Yeast proteome chip probed with PI(3,4,5)P3 liposomes
# Settings: liposome binding signal on yeast proteome chip, Cy3-streptavidin detection
row,Molecule,"PI(3, 4, 5)P3"
1,B1,29.25
2,B6,1.35
3,B3,−6.08
4,B4,78.07
5,B5,13.72

# Test system: PI(3,4)P2 liposomes
# Assay: Yeast proteome chip probed with PI(3,4)P2 liposomes
# Settings: liposome binding signal on yeast proteome chip, Cy3-streptavidin detection
row,Molecule,"PI(3, 4)P2"
1,B1,34.53
2,B2,−5.02
3,B3,1.73
4,B5,2.83

# Test system: PI(3)P liposomes
# Assay: Yeast proteome chip probed with PI(3)P liposomes
# Settings: liposome binding signal on yeast proteome chip, Cy3-streptavidin detection
# From the text: To identify PI-binding proteins in yeast, liposomes were used as probes because the liposome provides the most relevant physiological condition to assay the interactors. Six types of liposomes were used. Each contains phosphatidylcholine (“PC”) with 1% (w/w) N-(biotinoyl)-1,2-dihexadecanoyl-sn-glycero-3-phosphoethanolamine, triethylammonium salt (biotin DHPE). The biotinylated lipid serves as a label that can be detected by Cy3-streptavidin (21). In addition to PC, the five other liposomes contain either 5% (w/w) PI(3)P, PI(4)P, PI(3,4)P2, PI(4,5)P2, or PI(3,4,5)P3 (FIG. 3A).
# The protein-liposome interaction was assayed as follows. Appropriate amounts of each lipid in chloroform were mixed and dried under nitrogen. The lipid mixture was resuspended in TBS buffer by vortexing. The liposomes were created by sonication. Blocked proteome chips were washed three to five times in PBS buffer, and the extra liquid on the glass surface was removed by tapping the slides vertically on a KIMWIPE™. 200 μl of liposome solution was added to the proteome chip and immediately covered by a hydrophobic plastic cover slip (GRACE BIO-LAB™, USA). After trapped air bubbles were removed, the chip was incubated in a humidity chamber at RT for one hour. To remove the cover slip, the chip was immersed into large volume of PBS buffer (50 ml), so that the slip would float away. The chip was then moved to a second PBS bath (>50 ml) and washed 3×5 min with shaking at RT. After removing extra liquid on the surface of the chip, about 100 μl of Cy3 or Cy5 conjugated streptavidin (PIERCE™, USA; 1:2000 to 1:4000 dilution) was added to the surface and covered by a hydrophobic plastic cover slip (GRACE BIO-LABS™, USA). The chip was incubated for greater than 30 min in the dark at RT. The chip was then washed as described above. To completely remove the liquid on the chip, the chip was spun to dryness at 1500-2000 rpm for 5-10 min at RT.
# • 1. S. Fields, Y. Kohara, D. J. Lockhart, Proc. Natl. Acad. Sci. 96, 8825 (1999); A. Goffeau et al., Science 274, 563 (1996). • 2 P. Ross-Macdonald et al., Nature 402, 413 (1999); J. L., DeRisi, V. R. Iyer, P. O. Brown, Science 278, 680 (1997); E. A. Winzeler et al., Science 285, 901 (1999). P. Uetz et al., Nature 403, 623 (2000); T. Ito et al., Proc. Natl. Acad. Sci. USA. 97, 1143 (2000) • 3 H. Zhu, M. Snyder, Curr. Opin. Chem. Biol. 5, 40 (2001). • 4 M. R. Martzen et al., Science 286, 1153 (1999). • 5 H. Zhu et al., Nat. Genet. 26, 283 (2000). • 6 G. MacBeath, S. L. Schreiber, Science 289, 1760 (2000). • 7 A. Caveman, J. Cell Sci. 113, 3543 (2000). • 8 P. Arenkov et al., Anal. Biochem 278, 123 (2000). • 9 D. A. Mitchell, T. K. Marshall, R. J. Deschenes, Yeast 9, 715 (1993). The expression vector pEGH was created by inserting an RGS-HisX6 epitope tag between the GST gene and the polycloning site of pEG(KG). The yeast ORFs were cloned using the strategy described previously (5), except every step was done in a 96-well format. Plasmid DNAs confirmed by DNA sequencing were reintroduced into both yeast (Y258) and E. coli (DH5a). […] 0.1 mM calcium was present in buffers in all subsequent steps. The chip was washed three times with PBS at RT. Cy3-conjugated streptavidin (Jackson IR, USA) (1:5000 dilution) was added to the chip and incubated for 30 min at RT. After extensive washing, the chip was spun dry and scanned using a microarray scanner; the data was subsequently acquired with the GENEPIX™ array densitometry software (Axon, USA). • 12 S. S. Hook, A. R. Means, Annu. Rev. Pharmacol. Toxicol.41, 471 (2001). • 13 M. S. Cyert, R. Kunisawa, D. Kaim, J. Thorner, Proc. Natl. Acad. Sci. USA 88, 7376 (1991). • 14 D. A. Stirling, K. A. Welch, M. J. Stark, EMBO J. 13, 4329 (1994). • 15 F. Bohl, Kruse, EMBO J. 19, 5514 (2000); E. Bertrand et al., Mol. Cell 2, 437 (1998). • 16 D. C. Winter, E. Y. Choe, R. Li, Proc. Nat. Acad Sci. USA 96, 7288 (1999). • 17 C.
row,Molecule,PI(3)P
1,B1,87.50
2,B2,−3.00
3,B6,15.75
4,B3,213.00
5,B4,20.00
6,B5,23.00

# Test system: PI(4,5)P2 liposomes
# Assay: Yeast proteome chip probed with PI(4,5)P2 liposomes
# Settings: liposome binding signal on yeast proteome chip, Cy3-streptavidin detection
row,Molecule,"PI(4, 5)P2"
1,B1,20.47
2,B2,−1.31
3,B6,18.94
4,B3,3.48
5,B4,18.73
6,B5,3.05

# Test system: PI(4)P liposomes
# Assay: Yeast proteome chip probed with PI(4)P liposomes
# Settings: liposome binding signal on yeast proteome chip, Cy3-streptavidin detection
row,Molecule,PI(4)P
1,B1,42.24
2,B2,31.35
3,B6,−3.27
4,B3,−6.31
5,B4,226.45
6,B5,−4.79
